Assay results: patent publication CN106008708A

Biological target: 重组HBx蛋白 (B基因型HBx, GenBank NO.AF100309.1, 大肠杆菌表达) (乙型肝炎病毒(HBV) B基因型)
Test: ELISA, serial dilution of purified antibody on plates coated with immunogen HBx; positive threshold 0.3

B1: HBx单克隆抗体KY01 (antibody, mouse IgG1, V domains shown)
VH: EVQLQQSGPELVRPGASVKMSCKASGYTFTSYWMHWLKQRPGQGLEWIGMIDPSNSETRLNQKFKDKATLNVDKSSNTAYMQLSSLTSEDSAVYYCAYDGAYWGQGTLVTVSE
VL: DIVLTQSPASLAVSLGQRATISCRASESVDSYGNSFIHWYQQKPGQPPKLLIYRASNLESGIPARFSGSGSRTDFTLTINPVEADDVATYFCQQSNEDPRTFGGGTKLEIKR
For B1, the 抗体滴度(效价) (dilution factor (1:n)) was 2.5e+06.
